Substitutions are numbered along the chain they refer to.
B1: ADI-41445 (antibody, V domains shown)
VH: QVQLVQSGAEVKRPGSSVKVSCKAFGGSFSNYAINWVRQAPGQGLEWMGGISPVLGTAIYAKRFQGKVTITADKFANTAYMDLSSLRFEDTAVYYCARSPPHVEFPLTKWFDPWGQGTLVTVSS
VL: EIVMTQSPGTLSLSPGERATLSCRASQSVNSGYLAWYQHKPGRAPRLLIYGASNRATGVPDRFSGSGSGTDFTLTISRLEPEDFAVYYCQQYDNSLFTFGPGTKVDIK
notes: IgG1
B2: ADI-41443 (antibody, V domains shown)
VH: EVQLVESGGGVVQPGKSLRLSCAASGFTFSSYAMHWVRQAPGKGLEWVSVIWYEDSDKYYGDSVKGRFTISRDNSKNTLYLQMNSLRAEDTAVYYCARKSGGFGGLDYWGQGTLVTVSS
VL: DIVMTQSPLSLPVTPGEPASISCKSSQSLLTANGYNYLDWYVQKPGQSPHVLISLGSNRASGVPDRFSGSGSGTDFTLKISRVEAEDVGVYYCMQAIETPITFGQGTRLEIK
notes: IgG1; also called Ab 727
B3: ADI-41432 (antibody, V domains shown)
VH: QVQLVQSGAEVKKPGYSVKVSCKASGGTFSTFGISWVRQAPGLGLEWMGGIIPLFGTADYSKKYQGRVTITADESTSTGYMELNSLTPEDTAVYYCARSPGHLWSRYDAFEVWGQGTTVTVSS
VL: QPVLTQPRSVSGSPGQSVTISCSGTSSDVGGYNYVSWYQQYPGKAPKLIIYDVNKRPSGVPDRFSGSKSDNTASLTISGLQADDESDYFCCSYAGSHTFEVFGTGTKVTVL
notes: IgG1
B4: ADI-41448 (antibody, V domains shown)
VH: TVQLVESGAEVKSPGSSVRVSCQASGGSSNSYAISWVRQAPGQGLEWMGMISPLFGTTRFSQRFQGRVTITADKSTSTAYMELSSLNSEDTALYYCARGRFDFWSGPTRFYYTMDVWGQGTMVTVSS
VL: QSVLIQPASVSGSPGQSITISCSGTSSDIGGYNYVSWYQQHPGKAPKLLISDVTDRPSGISDRFSGSKSGTSASLTISGLQADDEADYYCTSYTTSSTWVFGGGTKLTVL
notes: IgG1
B5: ADI-41436 (antibody, V domains shown)
VH: EVQLLESGGGVVQPGRSLRLSCAASGFTFSDYAMHWVRQAPGKGLEWVALISFDGSNEYYADSVKGRFTISRDNSRNTVYLQVNTLRPDDTAVFYCARDSHLRLTTRGWGSFDYWGQGTLVTVSS
VL: NFMLTQPHSVSESPGKTVTIACTRSSGSIARNYVQWYQQRPGRSPTMVIYEDNQRPSGVPDRFSGSIDTSSNSASLTISGLKTEDEADYYCQPYDPDNLVFGGGTKLTVL
notes: IgG1; also called Ab 720
B6: ADI-41444 (antibody, V domains shown)
VH: EVQLVESGPRLVKPSQTLSLTCTVSGGSIGTGDYHWTWIRQSPGKGLEWIGNIYYNGRTFYNPSLKGRGSISRDASKNQFSLNLSSVSAADTAVYYCARDRAAKGFDHWGQGTLVTVSS
VL: DIQLTQSPSTLSASVGDRVTITCRASQNINGWLAWYQQKPGRVPKLLIYKASTLESGVPSRFSGSASGTEFTLTINNLLPDDFATYYCQQYNDYPYTFGQGTKVEIK
notes: IgG1
B7: ADI-41453 (antibody, V domains shown)
VH: QVQLVQSGAEVRKPGASVKVSCKASGYTFSIYDMNWVRQAPGQGLEWMGWMNPNSGNTGYAQKFQGRVTMTGDTSISTAYMELSSLTSEDTAVYYCAVMYGDYPGYWGQGSLVTVSS
VL: SYELTQPLSVSVALGQTARITCGGNNIGSKSVHWYQQKPGQAPVLVIYRDAKRPSGIPERFSGSNSGNTATLTISGAQAGDEADYYCQVWDSNAWIFGGRTKLTVL
notes: IgG1; also called Ab 737
B8: ADI-41451 (antibody, V domains shown)
VH: EVQLVESGGGLVQPGGSLRLSCAAAGFTFNNYEMHWVRQAPGKGLEWVSCVTSSGTATYYADSVKGRFTVSRDNAKKSLQLQMNSLRAEDTAVYYCARELYLGEDYYYGLDVWGQGTTVTVSS
VL: SYELTQPPSVSVSPGQTASISCSGDKLRNKHTCWYQHKSGQSPVLLIYQDNRRPSGIPDRLSGSKSGTTATLTISWTQAMDEAEYYCQAWDSNSAVIFGGGTKLTVL
notes: IgG1; also called Ab 735
B9: ADI-41440 (antibody, V domains shown)
VH: EVQLVESGGGLVKPGGSLRLSCAVSGFTFSDYTMNWVRQAPGKGLEWVSSISGSGTYIYYGDSVKGQFTISRDNAKNSLYLQMNSLRAEDTAVYYCARELPAKTIFGVDFLGGTTAYDCWGQGTPVTVSS
VL: EIVLTQSPATLSVSPGERATLSCRASQSVSSNLAWYQQKPGQAPRLLIYSATTRATGVPARFSGSGSGTEFTLTISSLRSEDFAVYYCQQYNNGGTFGPGTKVEIK
notes: IgG1; also called Ab 724
B10: ADI-41446 (antibody, V domains shown)
VH: EVQLLESGGGLVQPGGSLRLSCAASGFTYYSYAMNWVRQAPGKGLEWVSAISGGGDNTFYAESVKGRFTISRDNAKNTLYLQMDSLRAEDTAVYYCAKDLQGYTSLYCFDYWGQGTLVTVSS
VL: EIVMTQSPATLSLSPGERAALSCRASQSVFNYVAWYQQKPGQAPRLLIYDTSKRATGIPARFSGSGSGTDFTLTISSLEPEDFAVYYCQHRYNWPGLIFGGGTKVEIK
notes: IgG1; also called Ab 730
B11: ADI-41832 (antibody, V domains shown)
VH: EVQLVESGGGLVQPGGSLRLSCAASGFTFSKYAMNWVRQAPGKGLEWVSSISDSGDSRYYADSVKGRFTISRDSSKNTLNLQMNSLRAEDTAVYYCAKAGWELFSPQGAFDLWGQGTMVTVSS
VL: EIVMTQSPGTLSLSPGERATLSCRASQSVSSSHLAWYQQKPGQAPRLLIYGASSRDSGIPDRFSGSGSGTDFTLSISRLEPEDFAVYYCQHYGNSPYTFGQGTKVDIK
B12: ADI-41829 (antibody, V domains shown)
VH: EVQLVESGGGLVKPGGSLRLSCAASGFTSSGYNMNWVRQAPGKGLEWVSSISGSSSYIHYADSVKGRFTISRDNAKNSLYLQMNSLRAEDTAVYYCATVGALPGHFDNWGQGTLVTVSS
VL: QAVVTQEPSVSGAPGQRVTISCTGSSSNIGAGYDVHWYQQLPGTAPKLLIYDNTNRPSGVPDRFSGSKSGTSASLAITGLQAEDEADYYCQSYDSRLTYVFGTGTKVTVL
B13: ADI-41831 (antibody, V domains shown)
VH: EVQLLESGGGLVKPGGSLRLSCAASGFTFSSYAMHWVRQPPGKGLEWVSSISASSSFINYADSVKGRFTISRDGARNSLYLQMNSLRAEDTAVYYCVREDYDSSGYGLHWFDPWGQGTTVTVSS
VL: SYVLTQPPSVSGAPGQRVTISCTGSSSNIGAGYDVHWYQQFPGTAPKLLMYGNTNRPSGVPDRFSGSKSGTSASLAITGLQAEDEADYYCQSYDRSLSGWVFGGGTKLTVL
B14: ADI-43640 (antibody, V domains shown)
VH: QVQLVQSGGGLVKPGGSLRLSCAASGFTFSSYSMNWVRQAPGKGLEWVSSISSSSSYIYYADSVKGRFTISRDNAKNSLYLQMNSLRAEDTAVYYCAREGRDGYNYNFDYWGQGTLVTVSS
VL: B13 VL with S1Q, Y2S, L4V, F41L, M50I, T54S, R95S, W100V
B15: ADI-41835 (antibody, V domains shown)
VH: EVQLLESGGGLVQPGGSLRLSCAASGFTFSSYAMNWVRQAPGKGLEWVSIISDSGGSTYYADSVKGRFTISRDNSKNTLYLQMNSLRAEDTAVYYCAKATPLKWELLIGSTPGYYFDYWGQGTTVTVSS
VL: SYELTQLPSVSVSPGQTASITCSGDKLGDKYACWYQQKPGQSPVVIMYQDNKRPSGIPERFSGSNSGNTATLTISGTQAMDEADYYCQAWDSSTGVFGGGTKVTVL
B16: ADI-41840 (antibody, V domains shown)
VH: QVQLVQSGAEVKKPGSSVKVSCKASGDTFSGYAIYWVRQAPGRGLELMGGIIPILGTSSYAQRFLGRTSFTADESTSTAYMDLSSLTSADTAMYYCARKRVTVPVPFDSWGQGTLVTVSS
VL: EIVMTQSPATLSVSPGERATLSCRASQSVSSNLAWYQQKLGQAPRLLIYGASTRATDIPARFSGSGSGTEFTLTISSLQSEDFVVYYCQQYNNWPWTFGQGTKVEIK
B17: ADI-41834 (antibody, V domains shown)
VH: EVQLLESGGRLVQPGRSLRLSCAASGFTVSGSYMSWVRQAPGKGLEWVSVIYIDGGTKYADSVKGRFTISRDNSKNTVYLQMNSLRAEDTAVYYCARDSSLWYRGGDYWGQGTLVTVSS
VL: DIQMTQSPSSLSASVGDRVTITCQANHDISNYLNWYQQKPGKAPKLLIYDASILEAGVPSRFSGSGSGTHFTFTISSLQPEDIATYYCQQFDFRALTFGGGTKVEIK
B18: ADI-41830 (antibody, V domains shown)
VH: QVQLVQSGPAVKKPGASVKVSCKASGYIFTSYGVSWVRQAPGQGLEWMGWISGYNGNTDYAQKFQGRVTLTVDSSTGTVYMDLRSLRSDDTAIYYCARAPPLPGQVYDGAGSYLLHGYWGQGTLVTVSS
VL: not shown
B19: ADI-41816 (antibody, V domains shown)
VH: QVQLVQSGAEVKKPGASVKVSCEASGYTFTDSYIHWVRQAPGQGLEWMGWINPNSGGTNYAQKFQGRVTMTRDTSTSTAFIELSRLRSDDTAVYYSARGVRQQWLVNTGDPDYYFDFWGQGTLVTVSS
VL: SYVLTQPPSVSVSPGQTASITCSGDKLGDKYSCWYQQKPGQSPVLVIYQDYKRPSGIPERFSGSNSGNTATLTISGTQAMDEADYYCQAWDRNAGVFGTGTKLTVL
B20: ADI-21065 (antibody, V domains shown)
VH: EVQLLESGGGLVQPGGSLRLSCAASGFTFSSYAMNWVRQAPGKGLEWVSGISGSGESTYYADSVKGRFTISRDSSKNTVYLQMNSLRADDTAVYYCAKDQGYGVVVPAATRALPPRRYGMDVWGQGTTVTVSS
VL: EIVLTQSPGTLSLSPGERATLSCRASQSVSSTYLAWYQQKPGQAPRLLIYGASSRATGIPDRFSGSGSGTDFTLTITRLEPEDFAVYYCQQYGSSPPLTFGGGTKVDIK

What follows are binders tested against RSV fusion glycoprotein (RSV F) on RSV-A2 virus (respiratory syncytial virus, UniProt P03420 26-574) (assay: cell-based or functional assay).

B1 and B2 cannot be ordered by “Neutralization IC50 (RSV subtype A)” value: greater than 25 mg/L for the first, greater than 25 mg/L for the second.

B3 and B4 cannot be ordered by “Neutralization IC50 (RSV subtype A)” value: greater than 25 mg/L for the first, greater than 25 mg/L for the second.

B5 and B6 cannot be ordered by “Neutralization IC50 (RSV subtype A)” value: greater than 25 mg/L for the first, greater than 25 mg/L for the second.

First: B7
Second: B8
The “Neutralization IC50 (RSV subtype A)” value of the first is higher: greater than 25 mg/L for the first, 0.84 mg/L for the second.

B9 and B10 cannot be ordered by “Neutralization IC50 (RSV subtype A)” value: greater than 25 mg/L for the first, greater than 25 mg/L for the second.

The binders below were run against RSV F on RSV subtype A virus (RSV-A2) (Respiratory Syncytial Virus, subtype A, …, UniProt P03420 26-574) (assay: cell-based or functional assay).

Going from B11 to B12, the “Neutralization IC50 (RSV subtype A)” value falls from 0.19 mg/L to 0.12 mg/L (1.6-fold).

Going from B13 to B14, the “Neutralization IC50 (RSV subtype A)” value rises from 5.21 mg/L to greater than 25 mg/L.

First: B15
Second: B16
The “Neutralization IC50 (RSV subtype A)” value of the first is lower: 0.45 mg/L for the first, greater than 25 mg/L for the second.

First: B17
Second: B18
The “Neutralization IC50 (RSV subtype A)” value of the first is 1.7-fold lower: 0.07 mg/L for the first, 0.12 mg/L for the second.

For B19, the “Neutralization IC50 (RSV subtype A)” value was 0.91 mg/L.

These binders were tested against RSV postfusion F (postF), F deltaFP (respiratory syncytial virus, UniProt P03420 26-513) (assay: BLI, IgG on sensor, 100 nM antigen).

In order of falling Kd:
1. B8  1.67 nM
2. B9  1.23 nM
3. B1  0.772 nM
4. B10  0.722 nM
5. B6  0.541 nM
6. B4  0.428 nM
7. B7  0.403 nM
8. B2  0.373 nM
9. B3  0.286 nM
10. B5  0.237 nM

The binders below were run against RSV prefusion F (preF), DS-Cav1 (respiratory syncytial virus, UniProt P03420 26-513) (assay: BLI, IgG on sensor, 100 nM antigen).

In order of rising Kd:
1. B5  1.1 nM
2. B8  1.82 nM
3. B3  2.05 nM
4. B7  2.17 nM
5. B2  2.4 nM
6. B4  2.75 nM
7. B6  3.01 nM
8. B1  3.04 nM
9. B9  3.18 nM
10. B10  3.6 nM

The binders below were run against T1, RSV postfusion F, subtype B (postF trimer) (Respiratory syncytial virus subtype B, UniProt P13843 26-513) (assay: BLI, IgG apparent affinity).
T1 construct: also called Postfusion subtype B

B20: no binding.

— US20260258115A1 (MAPP BIOPHARMACEUTICAL, published 2026)
